Assay results from the supplement of paper PMC10567573.
± gives the standard deviation.

Experiment: protein stability index of a GFP-peptide fusion (GPS, HEK-293T) (PSI 1-6); higher = more stable
Conditions: c terminus: a fixed tail appended
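Note: 24-mer peptide tiles fused after GFP, lentivirally expressed, FACS-sorted into six equal bins by GFP/DsRed ratio, decoded by Illumina sequencing, PSI is the read-weighted mean bin number.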

Row | Sequence | protein stability index (treatment: DMSO) | protein stability index (treatment: MLN4924 1 uM, 8 h)
1 | KERALSAPWLSLFPPEGNMEDKEM [ZNF263] | 4.82 ± 0.057 | 4.72 ± 0.18
2 | SLCNLEESITSAGRDDLESFQLEI [FAM98B] | 3.26 ± 0.16 | 3.45 ± 0.19
3 | SSAVSGVKEWFGLGGEQAEEKAFE [MIA2] | 5.09 ± 0.43 | 5.04 ± 0.19
4 | SMKGSCGIGGGIGGGSSRISSVLA [KRT16] | 2.54 ± 0.42 | 2.64 ± 0.33
5 | PCYDVRYAPSCAKCKKKITGEIMH [PDLIM7] | 3.04 ± 0.39 | 2.97 ± 0.38
6 | LLWSDPADNKIVSHLLVAEPEKIY [ESRRG] | 2.36 ± 0.3 | 2.55 ± 0.16
7 | MATSRYEPVAEIGVGAYGTVYKAR [CDK4] | 3.2 ± 0.094 | 3.2 ± 0.24
8 | GVYMTDITPQGVAMRAGVLADDHL [PDZK1] | 3.54 ± 0.46 | 3.34 ± 0.21
9 | THMYLQSDDEMELEETEPPLEPED [P3H4] | 5.4 ± 0.2 | 5.38 ± 0.29
10 | THADMDGKRTPRGRRGWKKFYAVL [PSD2] | 2.65 ± 0.15 | 2.9 ± 0.11
11 | NKILVPLVLLRQMLLELTRRGQEP [BCL2L13] | 2.64 ± 1.6 | 2.92 ± 0.92
12 | GRSSMGTGLSGGKRPSQEEDTQSI [CRY1] | 5.51 ± 0.17 | 5.37 ± 0.29
13 | QRDVGWAALLILFAASLLTVFAWL [C2CD2L] | 2.94 ± 0.34 | 3.05 ± 0.56
14 | PEEKIWEELSVLEVFEGREDSIFG [MAGEA6] | 4.23 ± 0.29 | 4.17 ± 0.39
15 | NGTMTIDWNEWRDYHLLHPVENIP [SLC25A25] | 3.18 ± 0.28 | 3.07 ± 0.19
16 | PGHIGPPGPTGPKGISGHPGEKGE [EMID1] | 5.59 ± 0.17 | 5.07 ± 0.35
17 | LNKCFIKVPREKDEPGKGGFWRID [FOXJ1] | 2.98 ± 0.2 | 2.98 ± 0.096
18 | AFVSNSPKLFCPKNRSFDIDAIYS [PLD5] | 2.15 ± 0.8 | 2.51 ± 0.69
19 | TVAGIVGSSYGILQLFSSTLVGCW [MFSD9] | 2.96 ± 0.83 | 2.89 ± 0.32
20 | IPPAAMLDQAPKARKYFERLPGGG [DYRK1B] | 3.72 ± 0.27 | 3.64 ± 0.061
21 | LLEQGAQVNRRSAKGNTALHDCAE [FEM1A] | 4.81 ± 0.22 | 4.9 ± 0.23
22 | ADSFESSDSLLQSWNSQSSLLDVQ [ETS2] | 4.38 ± 0.12 | 4.56 ± 0.12
23 | AGKALVISGREVFEFRPELVNDDD [ZC3H15] | 4.21 ± 0.57 | 4.23 ± 0.35

Row | Sequence | protein stability index (treatment: DMSO) | protein stability index (treatment: MLN4924 1 uM, 8 h)
24 | PGHGGIMDRFDCQYLMATFVHVYI [CDS1] | 3.26 ± 0.46 | 3.1 ± 0.3
25 | KYLKKREDSIPLRGLSQNLFSNSD [SASS6] | 3.15 ± 0.2 | 3.4 ± 0.29
26 | YDYVREFKRSTGTWHHTKPLLPSD [GAN] | 3.2 ± 0.32 | 3.27 ± 0.21
27 | ILSGLDDMSIGGNLSKTQNMERFG [CDC14A] | 3.24 ± 0.22 | 3.08 ± 0.26
28 | MSQPRTPEQALDTPGDCPPGRRDE [TMEM175] | 5.38 ± 0.17 | 5.58 ± 0.19
29 | FWYREALDISDSISESGGLNWKMT [SLC6A17] | 2.17 ± 0.34 | 1.92 ± 0.32
30 | FLYVTGHIKEILITAGGENVPPIP [ACSBG2] | 2.78 ± 0.93 | 2.81 ± 1.1
31 | KVQFNLQFTKPNASLGDVQSGATI [SASS6] | 2.45 ± 0.37 | 2.66 ± 0.45
32 | PVSASRSSLDLSYYPTSSSTSFMS [EMD] | 3.38 ± 0.21 | 3.38 ± 0.13
33 | CLRDDVVFFIYLYQRWIYRVDPTR [CLPTM1] | 2.77 ± 0.35 | 2.81 ± 0.48
34 | QYSVEGGKETLTPSELRDLVTQQL [S100A14] | 4.59 ± 0.23 | 4.55 ± 0.13
35 | GKGEARARLKRSQSFGVASASSIK [SMTNL2] | 4.6 ± 0.43 | 4.61 ± 0.38
36 | SAAYYLNDLDRIAQPNYIPTQQDV [GNAI1] | 3.7 ± 0.28 | 3.73 ± 0.24
37 | APLVQPSKNDNGKPDSVGLPPCAV [PCMTD1] | 5.09 ± 0.15 | 5.07 ± 0.22
38 | IRQYRLKKISKEEKTPGCVKIKKC [KRAS] |  | 3.31 ± 0.24
39 | RPGPQSVPLQLSAHWQCGATLTQV [FCHO1] | 2.21 ± 0.23 | 2.43 ± 0.2
40 | KKEKIIEDKTFGLKNKKGAKQQKF [ZC3H15] | 4.5 ± 0.27 | 4.33 ± 0.19
41 | EMGGSEGIVESIQIMKEGKATASE [NETO1] | 5.58 ± 0.21 | 5.611 ± 0.038
42 | GTDEEEEEFIEEEDQEEEESTEGK [TRIM63] | 5.71 ± 0.17 | 5.56 ± 0.24
43 | QEIATYRRLLEGEDAHLTQYKKEP [KRT17] | 4.68 ± 0.19 | 4.82 ± 0.18
44 | NHWVPACHSFNRAIHKKAKGTEAE [FBXO34] | 4 ± 0.17 | 4.1 ± 0.12
45 | GSKSQRYSGAYGASVSDEELKRRV [CHCHD3] | 4.99 ± 0.29 | 4.86 ± 0.18
46 | EYIDPETKKHIPYREHKSLTGTAR [CSNK1G1] | 4.15 ± 0.28 | 4.08 ± 0.42

Row | Sequence | protein stability index (treatment: DMSO) | protein stability index (treatment: MLN4924 1 uM, 8 h)
47 | PLLSNTFTETNNHWPQGPTGPPGP [EMID1] | 3.53 ± 0.33 | 4.08 ± 0.14
48 | LMVDFAQERQMLQALKFLPVPSAP [FSD1] | 2.21 ± 0.081 | 2.22 ± 0.3
49 | HHPENGEETVTMLEDVERELDGPK [ZNF396] | 5.51 ± 0.13 | 5.49 ± 0.15
50 | KVHIGYLPNKQVLGLSKLARIVEI [GCH1] | 2.84 ± 1.1 | 2.48 ± 0.8
51 | LEFYRYYQQLKLEGPGEQETKLDL [SLC29A1] | 2.953 ± 0.027 | 3.11 ± 0.35
52 | AAKMYHQLKKCETRKLSPGKKRCK [SMG5] | 3.92 ± 0.35 | 4.07 ± 0.37
53 | FDIARIERCNQLLRALKLVITALK [ZER1] | 2.33 ± 0.6 | 2.41 ± 0.37
54 | GIHPLSSSEVDELIHKADEVTLSE [PALM] | 5.35 ± 0.2 | 5.23 ± 0.12
55 | IFPRLSFKDKSTYIESSTKVYDDM [CLPTM1] | 3.03 ± 0.23 | 3.15 ± 0.25
56 | QMAEKNRRDAETWFLSKTEELNKE [KRT16] | 5.02 ± 0.57 | 4.81 ± 0.35
57 | KMQQSKNQVVSSTNGELNTDDPTA [CSNK1G3] | 5.37 ± 0.21 | 5.34 ± 0.13
58 | DVRQNPCGSKACRRLFGPVDSEQL [CDKN1A] | 3.03 ± 0.2 | 3.12 ± 0.28
59 | ERLQAAGTDSAGPKTVPSHVFSEL [ELOA2] | 4.06 ± 0.15 | 4.4 ± 0.14
60 | FEREPSTSDLGTTDVQKKKLVDAI [RIPK4] | 4.62 ± 0.084 | 4.87 ± 0.29
61 | SSGKNVTLLVCGKKAYDYFQAKKI [PDZK1] | 2.13 ± 0.26 | 2.57 ± 0.82
62 | RYSCESRIRSYLREVSSYPSTVGA [DFFB] | 2.6 ± 0.27 | 2.73 ± 0.46
63 | EPSIAPTSCAGNLPSRPPPLLSPL [RSPH3] | 3.72 ± 0.2 | 3.83 ± 0.14
64 | PPPPPLPDPTPPEPEEEILGSDDE [SRPK2] | 5.51 ± 0.23 | 5.63 ± 0.19
65 | YTGMFTSSPDLDDMKLIILANRLC [RHOBTB2] | 2.73 ± 0.51 | 2.7 ± 0.51
66 | FLIVTVAWAAHTRLFQVVGKTDDT [TMEM175] | 2.86 ± 0.12 | 3.12 ± 0.23
67 | ISKGEEPRAGKEESGVSVSNSQPT [SLC29A1] | 5.48 ± 0.24 | 5.52 ± 0.22
68 | ARRESGGRPIKPPKKDLEDGEVPQ [BRD3] | 5.58 ± 0.21 | 5.38 ± 0.32
69 | ELGEEPQPRDEEEAELELLRQFDL [POLD4] | 5.41 ± 0.26 | 5.51 ± 0.3

Row | Sequence | protein stability index (treatment: DMSO) | protein stability index (treatment: MLN4924 1 uM, 8 h)
70 | LQRNPKHELTAKYLNYYQGMLDVA [P3H4] | 2.3 ± 0.13 | 2.39 ± 0.41
71 | AKLALFYDWLFFSPDKDSIMNIEP [INTS3] | 2.04 ± 0.34 | 1.9 ± 0.43
72 | DDLTSVTNHGYRVQVENPERFSSA [TRIM35] | 4.44 ± 0.24 | 4.588 ± 0.031
73 | PFDMDSCLSRHSINPYSNRESRIL [DFFB] | 3.24 ± 0.29 | 3.22 ± 0.29
74 | GGFDGSRRHTSMERYDPNIDQWSM [KLHL12] | 3.76 ± 0.28 | 3.89 ± 0.45
75 | ALSTMGTLICRKLGGVKKSATLRS [TPD52L3] | 2.6 ± 0.2 | 2.67 ± 0.31
76 | RTARALLDRDALKQSLVVAVQDHG [PCDHGA10] | 3.72 ± 0.18 | 3.87 ± 0.34
77 | SSMKKFCRPLLPSCTTRLCQEEQL [PSD2] | 2.88 ± 0.29 | 2.98 ± 0.15
78 | KPYIAAHFDVLPTEFTLGDDKHYG [PTPRD] | 3.28 ± 0.49 | 3.44 ± 0.14
79 | EEEEEEEGSGHSTGEDSAFQEPDS [WEE1] | 5.7 ± 0.16 | 5.62 ± 0.11
80 | LIKAKSQARLEEQQRLAHLEDKLR [LRRC45] | 3.77 ± 0.25 | 3.96 ± 0.25
81 | DVQARLNRSDHGIFHSRTSLQKLS [FCHSD1] | 3.09 ± 0.22 | 3.16 ± 0.3
82 | KYGGPNHHLPLPDNWKSQVEPETR [CPN1] | 4.16 ± 0.3 | 4.55 ± 0.28
83 | NTLRSQLGDRLNVEVDTAPTVDLN [KRT34] | 4.84 ± 0.18 | 4.84 ± 0.15
84 | GIFPLSFVKILKDFPEEDDPTNWL [NCF4] | 2.6 ± 0.28 | 2.82 ± 0.33
85 | KNDSLRKRYDGLKYDVKKVEEVVY [TSN] | 3.18 ± 0.22 | 3.32 ± 0.33
86 | TPPETKPDPPVNFLRQKVLSLPLP [PCMTD2] | 3.74 ± 0.24 | 3.85 ± 0.22
87 | FQKTKNLLTGETEADPEMIKRAED [CLPTM1] | 5.01 ± 0.42 | 5.31 ± 0.17
88 | RAPAEKPRGARCSNGFPERDPPRP [GCH1] | 4.2 ± 0.3 | 4.43 ± 0.17
89 | EDSILGDPKKLLTQHFVQENYLEY [MAGEA3] | 3.75 ± 0.36 | 3.79 ± 0.28
90 | WLEDEPGRGAQGENERVRGLETGD [ZSWIM9] | 5.49 ± 0.32 | 5.48 ± 0.18
